Assay results: publication PMC5679380

Target: D-tagatose 3-epimerase from Rhodobacter sphaeroides (Rhodobacter sphaeroides)
Assay: SEC; Superdex200 10/300 GL, 20 mM Tris-HCl pH 8.0, 100 mM NaCl, 1 mM dithiothreitol; 50 ug of purified RsDTE; six standard protein markers (6.5-158 kDa) for calibration

Substance: D-tagatose 3-epimerase from Rhodobacter sphaeroides (enzyme)
- stoichiometry N: 4
